# Source: US20040077522A1 (published 2004)
# B1: Deinococcus radiodurans LuxS (enzyme)
# chain: MPDMANVESFDLDHTKVKAPYVRLAGVKTTPKGDQISKYDLRFLQPNQGAIDPAAIHTLEHLLAGYMRDHLEGVVDVSPMGCRTGMYMAVIGEPDEQGVMKAFEAALKDTAGHDQPIPGVSELECGNYRDHDLAAARQHARDVLDQGLKVQETILLERGSHHHHHH
# modifications: selenomethionine in place of methionine (SeMet protein used for the crystals)
# notes: Open reading frame amplified from D. radiodurans ATCC 13939D genomic DNA and expressed in E. coli with 8 added C-terminal residues; The same protein gave several crystal forms: P21 has a non-crystallographic dimer in the asymmetric unit, and C2 has a crystallographic dimer; also called D. radiodurans LuxS; Deinococcus radiodurans wtLuxS
# B2: Haemophilus influenzae LuxS (enzyme)
# chain: MPLLDSFKVDHTKMNAPAVRIAKTMLTPKGDNITVFDLRFCIPNKEILSPKGIHTLEHLFAGFMRDHLNGDSIEIIDISPMGCRTGFYMSLIGTPNEQKVSEAWLASMQDVLGVQDQASIPELNIYQCGSYTEHSLEDAHEIAKNVIARGIGVNKNEDLSLDNSLLKGSHHHHHH
# modifications: selenomethionine in place of methionine (SeMet protein used for the crystals)
# notes: Open reading frame amplified from H. influenzae ATCC 51907D genomic DNA and expressed in E. coli with 8 added C-terminal residues; Homodimer in the crystal (two molecules in the asymmetric unit); also called H. influenzae LuxS; Haemophilus influenzae wtLuxS
# B3: Helicobacter pylori LuxS (enzyme)
# chain: MKMNVESFNLDHTKVKAPYVRIADRKKGVNGDLIVKYDVRFKQPNRDHMDMPSLHSLEHLVAEIIRNHANYVVDWSPMGCQTGFYLTVLNHDNYTEILEVLEKTMQDVLKAKEVPASNEKQCGWAANHTLEGAQNLARAFLDKRAEWSEVGVGSHHHHHH
# modifications: selenomethionine in place of methionine (SeMet protein used for the crystals)
# notes: Open reading frame amplified from H. pylori ATCC 43504D genomic DNA and expressed in E. coli with 8 added C-terminal residues; Homodimer in the crystal (two molecules, A and B, in the asymmetric unit); also called H. pylori LuxS; Helicobacter pylori wtLuxS
# Molecular target: the molecule itself
# Test: X-ray crystal structure, homodimer interface
row,Protein,surface area buried through the dimer interaction [Å^2]
1,B1,3930
2,B2,4160
3,B3,4180
